According to paper doi:10.1101/713511:

Assays:
SERF1a [1] = target: T1, SERF1a (human, UniProt O75920-2 1-62); assay: ITC
T1 sequence: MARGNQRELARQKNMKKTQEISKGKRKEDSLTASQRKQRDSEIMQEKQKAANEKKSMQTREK

Atto550-SERF1a [2] = target: T2, Atto550-SERF1a (human, UniProt O75920-2 1-62); assay: fluorescence anisotropy
T2 sequence: T1 sequence

YDL085C-A = target: T3, YDL085C-A (S. cerevisiae, UniProt Q3E7B7 1-68); assay: fluorescence anisotropy
T3 sequence: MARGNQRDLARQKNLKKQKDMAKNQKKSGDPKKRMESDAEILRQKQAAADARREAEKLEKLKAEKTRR

SERF1a [3] = target: T1, SERF1a; assay: fluorescence anisotropy
Atto550-SERF1a [4] = target: T2, Atto550-SERF1a; assay: fluorescence anisotropy; remark: listed apart in the source

ACUGCUAGAGAUUUUCCACAU (ssRNA) [R21(-) / 21R(-)]
Kd (SERF1a [1]): 5.99 ± 2.32 µM
Kd (Atto550-SERF1a [2]): 4.39 ± 1.59 µM

ACUGCUAGAGAUUUUCCACAU (ssRNA) [Cy3-R21(-)]
Kd (YDL085C-A): 2.35 ± 0.56 µM
Kd (SERF1a [3]): 4.81 ± 0.48 µM

B1: dsDNA 21mer (dsDNA)
DNA 1: ATGTGGAAAATCTCTAGCAGT
DNA 2: ACTGCTAGAGATTTTCCACAT
binding result (Atto550-SERF1a [4]): no binding
